Reference: US20260132392, “GENE EDITING SYSTEMS COMPRISING REVERSE TRANSCRIPTASES” (Metagenomi, Inc., published 2026)

Molecular target: T1, Ec86 retron RT (Escherichia coli, UniProt P23070 P23070:1-320)
T1 sequence: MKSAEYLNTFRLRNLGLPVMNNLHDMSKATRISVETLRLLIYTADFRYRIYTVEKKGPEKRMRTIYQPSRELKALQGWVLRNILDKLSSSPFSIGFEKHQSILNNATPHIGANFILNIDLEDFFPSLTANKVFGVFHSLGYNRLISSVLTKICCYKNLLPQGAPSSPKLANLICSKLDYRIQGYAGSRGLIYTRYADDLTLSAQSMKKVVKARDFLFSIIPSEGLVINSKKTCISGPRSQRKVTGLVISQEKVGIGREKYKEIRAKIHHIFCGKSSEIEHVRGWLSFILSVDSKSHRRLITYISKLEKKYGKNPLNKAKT
Experiment: msdDNA qPCR, 37 C 2 h
Settings: tags: N-terminal Strep tag
Description: The Ec86 RT was co-expressed with the ncRNA substrate (final 100 nM) in a cell-free expression system) supplemented with dNTPs (final 0.3 mM). Expression constructs were codon-optimized for E. coli and contained an N-terminal single Strep tag. After incubation for 2 h at 37° C., the reaction was quenched by heat denaturation at 95° C. for 2 min, followed by treatment by RNase A for 30 min at 37° C. […] The resulting reverse transcription products, herein referred to as msdDNA, were diluted prior to qPCR to ensure msdDNA concentrations were within the linear range of detection. The amount of msdDNA was quantified by extrapolating values from a standard curve generated with a DNA template of known concentrations.

B1: Ec86 wild-type ncRNA (ssRNA)
RNA: GGAUGCGCACCCUUAGCGAGAGGUUUAUCAUUAAGGUCAACCUCUGGAUGUUGUUUCGGCAUCCUGCAUUGAAUCUGAGUUACUGUCUGUUUUCCUUGUUGGAACGGAGAGCAUCGCCUGAUGCUCUCCGAGCCAACCAGGAAACCCGUUUUUUCUGACGUAAGGGUGCGCAACUUUC
B1: binds.
